Changes are numbered by the printed parent chain.
B1: PR002063 (antibody, human IgG1, V domains shown)
VH: EVQLLESGGGLVQPGGSLRLSCAASGFTFSSYAMSWVRQAPGRGLEWVSAISGGGGSTFYADSVRGRFTISRDNSKNTLYLQMSSLRAEDTAVYYCANGMTGTTDVDYWGQGTRVTVSS
notes: no light chain; also called anti-OX40 HCAb antibody
B2: PR002077 (antibody, human IgG1, V domains shown)
VH: B1 VH with R43K, G54R, G56N, S57I, S84N, M100I, R114L
notes: as for B1
B3: PR002065 (antibody, human IgG1, V domains shown)
VH: B1 VH with L5V, R43K, G54R, G56D, S57I, S84N, V93L, T103S, Y108F, R114L
notes: as for B1
B4: PR002074 (antibody, human IgG1, V domains shown)
VH: EVQLLESGGGLVQPGGSLRLSCAASGFTFSSYAMSWVRQAPGKGLEWVSGISGGGNNTFYADSVRGRFTISRDNSKNTLYLQMNSLRAEDTAVYYCMRGWELPLLENWGQGTLVTVSS
notes: as for B1
B5: PR002058 (antibody, human IgG1, V domains shown)
VH: EVQLLESGGGLVQPGGSLRLSCAASGFTFSSYAMSWVRQAPGKGLEWVSAISGGSGSTFYADSVRGRFTISRDNSKNTLYLQMNSLRAEDTAVYYCADGVTGTDFDFWGQGTLVTVSS
notes: as for B1
B6: PR002073 (antibody, human IgG1, V domains shown)
VH: B5 VH with L5V
notes: as for B1
B7: Pogalizumab analog (PR003475) (antibody, human IgG1, kappa, V domains shown)
VH: EVQLVQSGAEVKKPGASVKVSCKASGYTFTDSYMSWVRQAPGQGLEWIGDMYPDNGDSSYNQKFRERVTITRDTSTSTAYLELSSLRSEDTAVYYCVLAPRWYFSVWGQGTLVTVSS
VL: DIQMTQSPSSLSASVGDRVTITCRASQDISNYLNWYQQKPGKAPKLLIYYTSRLRSGVPSRFSGSGSGTDFTLTISSLQPEDFATYYCQQGHTLPPTFGQGTKVEIKR
notes: Conventional IgG antibody; also called Tab

These binders were tested against T1, human OX40 on cells (CHO-K1/hu OX40) (human, UniProt P43489 29-277) (assay: cell-based or functional assay).
T1 sequence (looked up): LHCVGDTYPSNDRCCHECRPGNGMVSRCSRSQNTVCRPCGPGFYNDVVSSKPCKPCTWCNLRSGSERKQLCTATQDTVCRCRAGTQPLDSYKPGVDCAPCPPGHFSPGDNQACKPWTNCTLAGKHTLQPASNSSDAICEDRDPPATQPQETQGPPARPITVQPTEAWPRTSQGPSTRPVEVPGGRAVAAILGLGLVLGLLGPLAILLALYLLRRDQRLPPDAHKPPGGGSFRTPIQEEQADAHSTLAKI
With B1 the “EC50, HEK293/OX40/NF-kb luciferase reporter” value was 8.64 nM and the “Maximum fluorescence signal value, HEK293/OX40/NF-kb luciferase reporter” value (“Maximum fluorescence signal value” for short) was 150000 luminescence.
With B2 the “EC50, HEK293/OX40/NF-kb luciferase reporter” value was 3.51 nM and the “Maximum fluorescence signal value” value was 113000 luminescence.
B3 was tested, and the “EC50, HEK293/OX40/NF-kb luciferase reporter” value was 8.55 nM and the “Maximum fluorescence signal value” value was 149000 luminescence.
B4 was tested, and the “EC50, HEK293/OX40/NF-kb luciferase reporter” value was 3.08 nM and the “Maximum fluorescence signal value” value was 84800 luminescence.
For B5, the “EC50, HEK293/OX40/NF-kb luciferase reporter” value was 4.29 nM and the “Maximum fluorescence signal value” value was 136000 luminescence.
In the case of B6, the “EC50, HEK293/OX40/NF-kb luciferase reporter” value is reported as 6.39 nM and the “Maximum fluorescence signal value” value is reported as 121000 luminescence.

What follows are binders tested against T1, human OX40 on cells (CHO-K1/hu OX40) (assay: FACS, CHO-K1/hu OX40 cells).
Protocol: This example is intended to investigate the in vitro binding activity of anti-human OX40 HCAb monoclonal antibodies to human OX40. The antibody binding assay at the cellular level was performed using a stable CHO-K1 cell strain overexpressing human OX40 (CHO-K1/hu OX40). Briefly, the CHO-K1/hu OX40 cells were digested, resuspended in an F12K complete medium and washed once with PBS. The cell density was adjusted to 1×10⁶ cells/mL with PBS. The cells were seeded in a 96-well V-bottom plate (Corning, #3894) at 100 μL/well, and centrifuged, and then the supernatant was discarded. Then, the test antibodies diluted in a 3-fold gradient at concentrations that were 2 times the final concentrations were added at 100 μL/well. The cells were incubated at 4° C. for 1 h away from light. Thereafter, the cells in each well were rinsed twice with 100 μL of pre-cooled PBS, and centrifuged at 500 g at 4° C. for 5 min, and then the supernatant was discarded. […] The plate was incubated away from light at 4° C. for 30 min. The cells in each well were rinsed twice with 100 μL of pre-cooled PBS, and centrifuged at 500 g at 4° C. for 5 min, and then the supernatant was discarded. Finally, the cells in each well were resuspended in 200 μL of pre-cooled PBS, and the fluorescence signal values were read using a BD FACS CANTOII.
For B1, the EC50 was 9 nM and the “Maximum MFI” value was 2240 MFI.
In the case of B2, the EC50 is reported as 7.22 nM and the “Maximum MFI” value is reported as 3980 MFI.
B3 was tested, and the EC50 was 3.82 nM and the “Maximum MFI” value was 2860 MFI.
With B4 the EC50 was 1.27 nM and the “Maximum MFI” value was 3540 MFI.
In the case of B5, the EC50 is reported as 5.79 nM and the “Maximum MFI” value is reported as 3560 MFI.
In the case of B6, the EC50 is reported as 6.55 nM and the “Maximum MFI” value is reported as 3260 MFI.

These binders were tested against T2, cynomolgus monkey OX40 protein (Novoprotein, #CB17) (cynomolgus monkey) (assay: ELISA, coated cyno OX40 protein).
T2 construct: Bought recombinant protein; also called cyno OX40
Protocol: (§1) This example is intended to investigate the in vitro binding activity of the anti-OX40 HCAb monoclonal antibodies prepared in Example 1 to human and cynomolgus monkey OX40 proteins. The antibody binding assay at the protein level was performed using a human OX40 protein (Acro biosystem, #OX0-H5224) and a cynomolgus monkey OX40 protein (Novoprotein, #CB17). Briefly, a 384-well plate (PerkinElmer, #6007509) was coated with 1 μg/mL human OX40 protein and a cynomolgus monkey OX40 protein dissolved in PBS at 20 μL/well, and incubated at 4° C. overnight. The next day, the 384-well plate was washed three times with PBS containing 0.05% Tween (MEDICAGO, #09-9410-100), and blocked with PBS containing 2% milk (Bio-Rad, #170-6404) at 37° C. for 1 h. […] The plate was added with a stop buffer (BBI life sciences, #E661006-0200) at 20 μL/well, and read for OD₄₅₀₋₆₅₀ values using a plate reader (Molecular Devices, model: SpectraMax Plus). The values were analyzed with Graphad 8.0 and plotted.
For B1, the EC50 was 0.276 nM and the “Maximum OD” value was 2.32 OD.
With B2 the EC50 was 0.441 nM and the “Maximum OD” value was 2.73 OD.
With B3 the EC50 was 0.103 nM and the “Maximum OD” value was 1.92 OD.
B4 was tested, and the EC50 was 0.14 nM and the “Maximum OD” value was 2.34 OD.
With B7 the EC50 was 0.194 nM and the “Maximum OD” value was 2.23 OD.
B5 was tested, and the EC50 was 0.0597 nM and the “Maximum OD” value was 1.76 OD.
In the case of B6, the EC50 is reported as 0.146 nM and the “Maximum OD” value is reported as 2.55 OD.

Each binder was assayed against T3, human OX40 protein (Acro biosystem, #OX0-H5224) (human, UniProt P43489 29-216) (assay: ELISA, coated human OX40 protein).
T3 construct: Bought recombinant protein
T3 sequence (looked up): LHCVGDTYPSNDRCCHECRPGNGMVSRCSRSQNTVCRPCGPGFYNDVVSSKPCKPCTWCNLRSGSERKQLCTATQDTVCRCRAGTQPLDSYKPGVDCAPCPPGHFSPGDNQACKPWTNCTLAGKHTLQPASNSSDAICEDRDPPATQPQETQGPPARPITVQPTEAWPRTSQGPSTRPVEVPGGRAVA
Protocol: as §1
In the case of B1, the EC50 is reported as 0.101 nM and the “Maximum OD” value is reported as 2.28 OD.
B2 was tested, and the EC50 was 0.146 nM and the “Maximum OD” value was 2.67 OD.
B3 was tested, and the EC50 was 0.0639 nM and the “Maximum OD” value was 2.47 OD.
In the case of B4, the EC50 is reported as 0.0512 nM and the “Maximum OD” value is reported as 2.35 OD.
With B5 the EC50 was 0.0629 nM and the “Maximum OD” value was 1.94 OD.
With B6 the EC50 was 0.085 nM and the “Maximum OD” value was 2.38 OD.

What follows are binders tested against T3, human OX40 protein (Acro biosystem, …) (assay: BLI, antibody on ProA sensor, 1:1 global fit).
Protocol: (§2) The binding kinetics between the antigen and the antibody was analyzed by the Biolayer Interferometry (BLI) technique using an Octet Red 96e molecular interaction analyzer (Fortebio).
(§3) The association and dissociation signals between the OX40 antibodies and OX40 proteins were recorded by Octet Red 96 in real time. When data analysis was performed using Octet Data Analysis software (Fortebio, version 11.0), 0 nM was used as a reference hole, and reference subtraction was performed; the “1:1 Global fitting” method was selected to fit the data, and the kinetics parameters of the binding of antigens to antigen-binding proteins were calculated, with kon(1/Ms) values, kdis(1/s) values and KD(M) values obtained.
B1 gave a Kd of 13 nM, a koff of 0.000511 s⁻¹ and a kon of 39200 M⁻¹ s⁻¹.
With B2 the Kd was 10.6 nM, the koff was 0.000364 s⁻¹ and the kon was 34300 M⁻¹ s⁻¹.
B3 gave a Kd of 6.79 nM, a koff of 0.000337 s⁻¹ and a kon of 49600 M⁻¹ s⁻¹.

Each binder was assayed against T2, cynomolgus monkey OX40 protein … (assay: BLI, antibody on ProA sensor, 1:1 global fit).
Protocol: as §2, §3
B1 showed a Kd of 53.4 nM, a koff of 0.00192 s⁻¹ and a kon of 36000 M⁻¹ s⁻¹.
B2 gave a Kd of 22.1 nM, a koff of 0.000722 s⁻¹ and a kon of 32700 M⁻¹ s⁻¹.
Binder B3 has a Kd of 33.7 nM, a koff of 0.00104 s⁻¹ and a kon of 30800 M⁻¹ s⁻¹.
B7 showed a Kd of 0.0894 nM.

What follows are binders tested against T1, human OX40 on cells (CHO-K1/hu OX40) (assay: FACS, blocking of biotin-human OX40L on CHO-K1/hu OX40 cells).
Protocol: Briefly, the CHO-K1/hu OX40 cells were digested and resuspended in an F-12K complete medium, and the cell density was adjusted to 1×10⁶ cells/mL. The cells were seeded in a 96-well V-bottom plate (Corning, #3894) at 100 μL/well, and centrifuged, and then the supernatant was discarded. The test antigen-binding proteins diluted in a 3-fold gradient at concentrations that were 2 times the final concentrations were added at 100 μL/well, and the mixture was well mixed, wherein the antigen-binding protein had the highest final concentration of 100 nM, and a total of 8 concentrations were obtained. […] The cells were incubated at 4° C. for 1 h away from light. Thereafter, the cells were centrifuged at 4° C. for 5 min, and then the supernatant was discarded. […] The cells in each well were rinsed twice with 100 μL of pre-cooled PBS, and centrifuged at 500 g at 4° C. for 5 min, and then the supernatant was discarded. A 1:200 fluorescent secondary antibody PE Streptavidin (BD Biosciences, #554061) was added at 100 μL/well, and the cells were incubated away from light at 4° C. for 30 min. The cells in each well were rinsed twice with 200 μL of pre-cooled PBS, and centrifuged at 500 g at 4° C. for 5 min, and then the supernatant was discarded. Finally, the cells in each well were resuspended in 200 μL of precooled PBS. Fluorescence signal values were read using BD FACS CANTOII, and IC50 was calculated. Inhibition rate %={average MFI of non-blocking control well−MFI value of OX40 antibody}/{(average MFI of non-blocking control well)−average MFI of 100% blocking control well)}×100%.
In the case of B1, the “Maximum inhibition rate (%)” value is reported as 17%.
With B2 the IC50 was 41.1 nM and the “Maximum inhibition rate (%)” value was 34%.
B3 was tested, and the IC50 was 49.6 nM and the “Maximum inhibition rate (%)” value was 44%.
For B4, the IC50 was 43.1 nM and the “Maximum inhibition rate (%)” value was 81%.
B5 was tested, and the IC50 was 98.1 nM and the “Maximum inhibition rate (%)” value was 38%.
With B6 the IC50 was 75.2 nM and the “Maximum inhibition rate (%)” value was 24%.

From patent US20230295324A1 (published 2023)
